Measured values reported in the supplement of paper PMC7125110.
± gives the standard error. Variants at the floor of the assay were thinned out.

B1: glmS ribozyme (parent)
chain: AUAAAAGCGCCAGAACUACAGAAAUGUAGUUGACGAGGAGGAGGUUUAUCGAAUUUUCGGCGGAUGCCUCCAAA

Key:
Conditions in all cases: with glucosamine-6-phosphate
glucosamine-6-phosphate [1] = variants of: B1; experiment: self-cleavage kobs at 40 uM GlcN6P; higher = faster cleavage; RNA array
Summary of the method: (§1)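 Tiles bearing barcoded ribozyme variants, transcribed in situ by E. coli RNA polymerase on sequenced MiSeq chips, were imaged over ~14 h at 37 °C using a hybridised Cy3 probe. Glucosamine-6-phosphate was supplied at 40 μM to 10 mM in HEPES/KCl/Mg(OAc)2 buffer. kobs came from one- or two-exponential decay fits to normalised per-tile medians, and weighted Michaelis–Menten fits then provided kcat and KM.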

glucosamine-6-phosphate [2] = variants of: B1; experiment: self-cleavage kobs at 10000 uM GlcN6P; higher = faster cleavage; RNA array
Summary of the method: as §1

glucosamine-6-phosphate [3] = variants of: B1; experiment: self-cleavage kobs at 160 uM GlcN6P; higher = faster cleavage; RNA array
Summary of the method: as §1

glucosamine-6-phosphate [4] = variants of: B1; experiment: self-cleavage kobs at 640 uM GlcN6P; higher = faster cleavage; RNA array
Summary of the method: as §1

glucosamine-6-phosphate [5] = variants of: B1; experiment: self-cleavage kobs at 2500 uM GlcN6P; higher = faster cleavage; RNA array
Summary of the method: as §1

Variant	self-cleavage kobs at 40 uM GlcN6P (glucosamine-6-phosphate [1]) [s⁻¹]	self-cleavage kobs at 10000 uM GlcN6P (glucosamine-6-phosphate [2]) [s⁻¹]	self-cleavage kobs at 160 uM GlcN6P (glucosamine-6-phosphate [3]) [s⁻¹]	self-cleavage kobs at 640 uM GlcN6P (glucosamine-6-phosphate [4]) [s⁻¹]	self-cleavage kobs at 2500 uM GlcN6P (glucosamine-6-phosphate [5]) [s⁻¹]
G44A U46G U69G	< 1e-05	< 1e-05			
C16G G51A	< 1e-05	< 1e-05	< 1e-05		
G35U G62A	< 1e-05	< 1e-05	< 1e-05	< 1e-05	< 1e-05
C8U A12G C50U C68G	3.9e-05 ± 1.6e-05	6.84e-05 ± 1.7e-05	0.000221 ± 8.4e-05	0.00022 ± 8.6e-05	0.000476 ± 0.00018
G13U A52U C70G	< 1e-05				
U46G C70U	0.000256 ± 2.3e-05	0.00705 ± 0.00083	0.000556 ± 8.8e-05	0.00125 ± 0.0002	0.00235 ± 0.00055
C10A G37C C68U	< 1e-05				
C16G A33U	< 1e-05	3.36e-05 ± 1e-05			
A6U G29U G38A C58A	< 1e-05				
G40A G41C C61G	< 1e-05			< 1e-05	< 1e-05
C10U A12G G32U A36U C70U	< 1e-05				
G59U A64U	< 1e-05	< 1e-05		< 1e-05	< 1e-05
A53U C71A	0.000169 ± 1.6e-05	0.00487 ± 0.00058	0.000145 ± 3.8e-05	0.00145 ± 0.00029	
C16G U57C	< 1e-05	3.37e-05 ± 1.2e-05	< 1e-05		
A6G C11G A42U	< 1e-05	< 1e-05			< 1e-05
A14G G66A	0.000901 ± 0.00011	0.0634 ± 0.015	0.00369 ± 0.0009	0.00997 ± 0.0018	0.0046 ± 0.001
G7U A52G C68G	0.000127 ± 4.6e-05	0.000484 ± 0.00022			
C16U U30A C58G A73U	< 1e-05				
G7U A12G	< 1e-05	< 1e-05	< 1e-05	< 1e-05	
C10A G38C G60U C71U	< 1e-05				
G44C G51A A53C	< 1e-05	< 1e-05			
C10U U65A	< 1e-05	< 1e-05	< 1e-05	< 1e-05	< 1e-05
C8U A14U G29C U46A G51A	< 1e-05	< 1e-05			
